Each block holds one molecule with its values, some of them ahead of it.
Columns and labels:
[1] = biological target: Bxy_22780 (GH35 β-1,2-galactosidase from Bacteroides xylanisolvens), wild type (Bacteroides xylanisolvens); assay: crystal structure; WT enzyme co-crystallised with 20 mM galactose or MeβGal; reservoir 0.35 M potassium thiocyanate, 12% PEG 3350; 20 °C; oligomeric state from PISA server analysis of the crystal structures
[2] = biological target: Bxy_22780 E350G mutant (nucleophile mutant) (Bacteroides xylanisolvens); assay: crystal structure; E350G mutant, ligand-free; 10–11 mg/ml in 50 mM MOPS (pH 7.5), 300 mM NaCl; reservoir 0.2 M sodium citrate tribasic dihydrate, 20% PEG 3350, 100 mM bis–Tris propane (pH 7.5); 20 °C; oligomeric state from PISA server analysis of the crystal structure
[3] = substrate: C[C@H]1O[C@@H](Oc2ccc([N+](=O)[O-])cc2)[C@H](O)[C@@H](O)[C@H]1O; assay: hydrolysis kinetics (read-out for this constant not clearly told); assay type: biochemical, Bacteroides xylanisolvens; details: kinetic assays at pH 7.5, 30 °C
Description: hydrolysis kinetics (read-out for this constant not clearly told) on Bxy_22780

purified protein = substrate: O=[N+]([O-])c1ccc(O[C@@H]2O[C@H](CO)[C@H](O)[C@H](O)[C@H]2O)cc1; assay: purified protein; details: hydrolysis, kinetic assays at pH 7.5, 30 °C

- stoichiometry N [1]: 4
Molecule: Bxy_22780 (GH35 β-1,2-galactosidase from Bacteroides xylanisolvens), wild type (enzyme)

- stoichiometry N [2]: 4
Molecule: Bxy_22780 E350G mutant (nucleophile mutant) (enzyme)

B1: Bxy_22780 (Bacteroides xylanisolvens XB1A) (protein)
chain: RPPMYTSTNTEVPSRLVKNEHGSWQLIVNGKPFIMLAGELHNSSASTTEYLNSLWTSLKTLNLNTVLAPIAWEQFEPQEGIFDYTLINNMIDGARKNGFKLSILWFGSWKNGESSYAPTWVKEDTKRFFRVKSVEGKEIETISPFCENAMKADAKAFKTLVEHIKKVDQATGTVIALQPENEVGIFQGMDYSKASLAAYEQEVPQALIQYMKKNRKNLRKELLSVWEENGARTSGAWKTVFGDNAWSKSFYTTWQYATYIDFISAGAKEIYPLPTFCNCWLVQKPDDMPGVYPNGGPVSRVMDIWKAAAPHIDVLAPDIYLSDFKNIVADYHRADNPLLIPEAVMKPANAFWAFGEHSALCYSPFGIEDGADNFVFAQSYKVLNELIPLISEHQGSDRMIGVMKMPGESERTVTMGDYQLCIKYDAEDAYGLIIQTGKNEFVVAGINFKVYFTSTDKKKTGYIKQVWEGGYDTDGEWKATRLLNGDETYHNAVLIAKGRRTFTSEKSNNYNADHSDEIFVYSPTSYQAVWSPGIYRVTTYLR
notes: N-terminal signal peptide (22 residues, counted with the 14 upstream residues) removed; C-terminal His6-tag (pET30a), E. coli BL21(DE3); homotetramer, D494 of a neighbouring subunit contacts subsite -1
- Km [3]: 7.95 ± 0.46 mM
- Vmax [3]: 14 µmol/min/mg
- Vmax/Km [3]: 1760 µL/min/mg
- Km (purified protein): 3.49 ± 0.53 mM
- Vmax (purified protein): 21.2 µmol/min/mg
- Vmax/Km (purified protein): 6080 µL/min/mg

Source: article PMC11739564, “Structure and function of a β-1,2-galactosidase from Bacteroides xylanisolvens, an intestinal bacterium” (Communications Biology, 2025)
